Data from PMC8769072, “Proteome‐scale mapping of binding sites in the unstructured regions of the human proteome” (Molecular Systems Biology, 2022).
pIC50, pKd, pKi: −log10 of the molar value.

Legend:
[1] = molecular target: FITC-labelled NCOR2 1307-1322 probe peptide (FITC-…) (human); test: fluorescence polarisation; saturation: protein in serial dilution added to FITC-labelled probe peptide (master mix with 10 nM probe and 2 mM DTT), 50 mM KPO4 or NaPO4 pH 7.5; fitted to a quadratic equation
[2] = molecular target: FITC-labelled Myc 320-328 probe peptide (FITC-…) (human); test: as above
[3] = molecular target: importin subunit alpha‐3 (KPNA4) ARM domain (UniProt O00629); test: FP competition against FITC-NCOR2 1307-1322 probe; conditions: reference: unphosphorylated peptide
[4] = molecular target: MDM2 SWIB, cleaved from the His‐GST tag, for affinity measurements (human); test: fluorescence polarisation; competition: unlabelled peptide in serial dilution displaces a FITC-labelled probe peptide from the bait domain (master mix with protein at four times the KD of the probe, 10 nM probe, 2 mM DTT); 50 mM KPO4 or NaPO4 pH 7.5; triplicates; probe for KEAP1 Kelch: FITC-NFE2L1 228-243, other probes in Dataset EV6
[5] = molecular target: KPNA4 ARM (importin subunit alpha-3, armadillo repeat domain) (human) (UniProt O00629); test: fluorescence polarisation; competition: unlabelled peptide in serial dilution against KPNA4 ARM (master mix at four times the KD) with the probe FITC-Myc(320-328), probe of the major pocket; 50 mM KPO4 pH 7.5; Ki calculated from IC50
[6] = molecular target: FITC-labelled phospho-RAF1 255-264 probe peptide (FITC-QRSTpSTPNVH) (human); test: fluorescence polarisation; saturation: protein in serial dilution added to FITC-labelled probe peptide (master mix with 10 nM probe and 2 mM DTT), 50 mM KPO4 or NaPO4 pH 7.5; fitted to a quadratic equation
[7] = molecular target: KPNA4 ARM (importin subunit alpha-3, armadillo repeat domain) (human) (UniProt O00629); test: fluorescence polarisation; competition: unlabelled peptide in serial dilution against KPNA4 ARM (master mix at four times the KD) with the probe FITC-NCOR2(1307-1322), probe of the minor pocket; 50 mM KPO4 pH 7.5; Ki calculated from IC50

Substance: KPNA4 ARM domain, MBP-tagged (from UniProt O00629 1-521) (domain or fragment)
- pKd [1]: 6.64
- pKd [2]: 7.52

Substance: NCOR1 class III NLS peptide (from UniProt O75376) pS1242 peptide
- binding against the reference ([3]; sites S1242): same

Substance: NUMB_(615–630) peptide, synthetic (from UniProt P49757 615-630)
- pKi [4]: 5.48

Substance: NCOR1 class III NLS peptide (from UniProt O75376) pY1247 peptide
- binding against the reference ([3]; sites Y1247): same

Substance: SPRTN 400-416 peptide
- pIC50 [5]: 6.59

Substance: NCOR1 class III NLS peptide (from UniProt O75376) pS1246 peptide
- binding against the reference ([3]; sites S1246): weaker

Substance: 14-3-3 protein sigma (SFN 14-3-3) (from UniProt P31947 1-248) (domain or fragment)
- pKd [6]: 3.28

Substance: ZNF532 1139-1154 peptide
- pIC50 [7]: 5.89
